Results on two molecules are retold here after article PMC8476643 (Nature Communications, 2021).

A value given as a limit tells only on which side of the number the result lay.

Test [1] concerns the target T1, SARS-CoV-2 receptor-binding domain (RBD) (SARS-CoV-2 Wuhan-Hu-1 (GenBank …, UniProt P0DTC2)).
T1 construct: source: High Five cells (baculovirus, pAcgp67B), purified from the medium (Ni-sepharose)
Briefly: SPR. The following applies: both partners purified.

Test [2] addresses T2, SARS-CoV receptor-binding domain (RBD) (SARS-CoV (GenBank NC_004718.3), UniProt P59594).
T2 construct: also called SARS-CoV RBD; source: High Five cells (baculovirus, pAcgp67B), purified from the medium (Ni-sepharose)
Briefly: SPR. The following applies: both partners purified.

The target of test [3] is T2, SARS-CoV receptor-binding domain (RBD). Description: SPR. The conditions noted are these: both partners purified. The source holds these as a separate data set.
The target of test [4] is T1, SARS-CoV-2 receptor-binding domain (RBD). Description: cell-based or functional assay.
The target is the same in test [5]. Briefly: SPR. The following applies: both partners purified. This is another data set of the same source.

B1: 6D6 monoclonal antibody (antibody, V domains shown)
VH: EVQLQQSGAELVKPGASVKLSCTTSGFNIIDTYMHWVKQRPEEGLEWIGGIDPVNGNSEYDPKFQDKATITADTSSNTAYLHLSRLTSEDTAVYYCASAHYYGSSSSFPYWGQGTLVTVSA
VL: DIVMTQSQKFMSTSVGDRVSVTCKASQNVGTHVAWYQQKPGQSPKALIYSASYRYSGVPDRFTGSGVGTDFTLTITNVQSEDLAEYFCQQYNSYFTFGSGTKLEIK
notes: also called mAb 6D6; source: mouse hybridoma, ascites, purified (protein A agarose); copies: 2 + 2
In test [1], B1 gave a Kd of 10 pM, a koff of 1.5e-06 s⁻¹ and an on-rate constant (kon) of 115000 M⁻¹ s⁻¹. In test [2], this molecule came in with a Kd of 370 pM, an off-rate constant (koff) of 6.3e-06 s⁻¹ and a kon of 17000 M⁻¹ s⁻¹. The molecule further gave a Kd in test [3] of 3720 pM. Moreover, the “Fig. S4: IC50 of neutralisation, LV-SARS-CoV-2 WT” value in test [4] stood at 10.9 µg/mL.

B2: 7D6 monoclonal antibody (antibody, V domains shown)
VH: EVQLQQSGAELVRPGASVKLSCTASGFNIKDTYIHWVKQRPEQGLEWIGRIDPGDGDTEYDPSFQGKATITADTSSNTAYLELSSLTSEDTAVYYCTRFYDYVDYGMDYWGQGTSVTVSS
VL: DIQMTQSPASLSASVGETVTITCRASGNIHNYLAWYQQKQGKSPQLLVYNAKTLADGVPSRFSGSGSGTQYSLKINSLQPEDFGSYYCQHFWSTPPWTFGGGTKLEVK
notes: also called mAb 7D6; source: mouse hybridoma, ascites, purified (protein A agarose); copies: 2 + 2
In test [1], B2 came in with a dissociation constant Kd of under 10 pM, an off-rate constant (koff) of 1.1e-06 s⁻¹ and a kon of 180000 M⁻¹ s⁻¹. In test [2], this molecule had a dissociation constant Kd of 30 pM, a koff of 1.7e-06 s⁻¹ and an association rate constant (kon) of 58500 M⁻¹ s⁻¹. In addition, the equilibrium dissociation constant (Kd) in test [5] worked out at 2.65 pM. Also, the “Fig. S4: IC50 of neutralisation, LV-SARS-CoV-2 WT” value in test [4] worked out at 5.98 µg/mL.

Broadly, the Kd is the concentration at which binding is half-saturated. Low values mean a tighter complex, high ones a looser complex. By koff is commonly meant the rate constant with which the complex falls apart. A lower koff goes with a long-lived complex. By kon is commonly meant the second-order rate constant of association.
